Key:
Type in all cases: biochemical, Z. mays
[1] = tested on: 4-hydroxyphenylpyruvate dioxygenase (HPPD); assay: HPPD activity coupled assay with HGD; substrate saturation kinetic parameters (kcat, KM)
Procedure, shortened: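 Coupled continuous assay: His-tagged HPPD (5 to 240 nM, E. coli-expressed, Ni-NTA-purified) with 50 nM P. aeruginosa HGD in 25 mM Hepes pH 7, 2 mM ascorbate, 10 μM FeSO4; maleylacetoacetate followed at 320 nm. KM and Vmax from Lineweaver-Burke fits over 3.33–100 μM HPP.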

[2] = tested on: 4-hydroxyphenylpyruvate dioxygenase (HPPD); assay: OFF rate ratio: release of inhibitor from pre-formed enzyme-inhibitor complex
Procedure, shortened: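 HPPD (7.2 μM) pre-incubated 1 h at RT with inhibitor (8 μM), then diluted into 25 mM Hepes pH 7, 2 mM ascorbate, 10 μM FeSO4, 100 μM HPP, 50 nM HGD; A320 followed 12 min. Ratio = steady-state rate with inhibitor over initial rate of inhibitor-free enzyme.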

[3] = tested on: 4-hydroxyphenylpyruvate dioxygenase (HPPD); assay: Insensitivity parameter (ON × OFF) and trait fitness (ON × OFF × kcat/KM or × kcat); design: key to ON × OFF / Insensitivity, mesotrione, ON × OFF / Insensitivity, tembotrione, ON × OFF / Insensitivity, topramezone, ON × OFF / Insensitivity, sulcotrione, ON × OFF / Insensitivity, isoxaflutole (DKN), ON × OFF: insensitivity = ON rate ratio × OFF rate ratio (surrogate for KD)
Procedure, shortened: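 Calculated, not measured directly: ON rate ratio × OFF rate ratio gives an insensitivity parameter serving as a KD surrogate.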

[4] = Table 2, E. coli purified proteins
[5] = substrate saturation kinetic analysis
[6] = inhibitor diketonitrile form of isoxaflutole (DKN)
[7] = Table 5, tembotrione, fold vs maize wild type HPPD

- OFF ratio (parameters with tembotrione) ([2]; Table 5, tembotrione): 0.03
- Insensitivity, isoxaflutole (DKN), Rate ratio OFF [2, 6]: 0.01
- Insensitivity, mesotrione, Rate ratio OFF ([2]; inhibitor mesotrione): 0.31
- Insensitivity, sulcotrione, Rate ratio OFF ([2]; inhibitor sulcotrione): 0.28
- Insensitivity, tembotrione, Rate ratio OFF ([2]; inhibitor tembotrione): 0.04
- Insensitivity, topramezone, Rate ratio OFF ([2]; inhibitor topramezone): 0.045
- OFF rate ratio ([2]; mesotrione): 0.31
- time span to reach the steady state (dissociation from inhibitor) ([2]; mesotrione, enzyme 240 nM): 280 s
- Insensitivity parameter, ON × OFF ([3]; DKN (diketonitrile form of isoxaflutole)): 0.0096
- Insensitivity parameter, ON × OFF ([3]; Mesotrione, Table 6): 0.0437
- Insensitivity parameter, ON × OFF ([3]; Sulcotrione): 0.0872
- ON × OFF, fold vs wt [3, 7]: 1.00
- ON × OFF (parameters with tembotrione) ([3]; Table 5, tembotrione, insensitivity parameter): 0.0051
- Insensitivity parameter, ON × OFF ([3]; Tembotrione): 0.0051
- Insensitivity parameter, ON × OFF ([3]; Topramezon): 0.0154
- Insensitivity, isoxaflutole (DKN), ON × OFF [3, 6]: 0.0005
- Insensitivity, isoxaflutole (DKN), Trait fitness [3, 6]: 0.015
- Insensitivity, mesotrione, ON × OFF ([3]; inhibitor mesotrione): 0.062
- Insensitivity, mesotrione, Trait Fitness ([3]; inhibitor mesotrione): 2.1
- Insensitivity, sulcotrione, ON × OFF ([3]; inhibitor sulcotrione): 0.042
- Insensitivity, sulcotrione, Trait fitness ([3]; inhibitor sulcotrione): 1.45
- Insensitivity, tembotrione, ON × OFF ([3]; inhibitor tembotrione): 0.007
- Insensitivity, tembotrione, Trait fitness ([3]; inhibitor tembotrione): 0.26
- Insensitivity, topramezone, ON × OFF ([3]; inhibitor topramezone): 0.002
- Insensitivity, topramezone, Trait Fitness ([3]; inhibitor topramezone): 0.077
- Fitness Fold vs Zm wt ([3]; mesotrione): 1
- fold less sensitive to mesotrione than soybean HPPD ([3]; mesotrione): 40 fold
- Insensitivity parameter, ON × OFF ([3]; mesotrione, Table 2): 0.06
B1: Z. mays wt: maize wild-type HPPD, SEQ ID NO:1 (glycine for proline at position 2) (protein)
chain: MGPTPTAAAAGAAVAAASAAEQAAFRLVGHRNFVRFNPRSDRFHTLAFHHVELWCADAASAAGRFSFGLGAPLAARSDLSTGNSAHASLLLRSGSLSFLFTAPYAHGADAATAALPSFSAAAARRFAADHGLAVRAVALRVADAEDAFRASVAAGARPAFGPVDLGRGFRLAEVELYGDVVLRYVSYPDGAAGEPFLPGFEGVASPGAADYGLSRFDHIVGNVPELAPAAAYFAGFTGFHEFAEFTTEDVGTAESGLNSMVLANNSENVLLPLNEPVHGTKRRSQIQTFLDHHGGPGVQHMALASDDVLRTLREMQARSAMGGFEFMAPPTSDYYDGVRRRAGDVLTEAQIKECQELGVLVDRDDQGVLLQIFTKPVGDRPTLFLEIIQRIGCMEKDEKGQEYQKGGCGGFGKGNFSQLFKSIEDYEKSLEAKQAAAAAAAQGS
modifications: Zea mays
- Km [1, 4]: 6.4 µM
- kcat [1, 4]: 3.65 s⁻¹
- Km ([1]; Table 6): 6.4 µM
- kcat ([1]; Table 6, single substitutions in SEQ ID NO:2): 3.65 s⁻¹
- Km [1, 5]: 6.41 µM
- kcat [1, 5]: 3.65 s⁻¹
- kcat ([1]; text b374): about 220 min^−1
- ON × OFF × kcat, Value ([3]; Table 5, tembotrione): 1.07
- ON × OFF × kcat, Fold vs wt [3, 7]: 1.00
